The record followed here is publication PMC2588538, “Structure of Reovirus σ1 in Complex with Its Receptor Junctional Adhesion Molecule-A” (PLoS Pathogens, 2008).

B1: σ1 of reovirus strain rsT3D-σ1T249I (parent), on purified virions [mammalian orthoreovirus, strain type 3 Dearing GST-JAM-A ectodomain fusion protein [not stated] (parent)
chain 1: MDPRLREEVVRLIIALTSDNGASLSKGLESRVSALEKTSQIHSDTILRITQGLDDANKRIIALEQSRDDLVASVSDAQLAISRLESSIGALQTVVNGLDSSVTQLGARVGQLETGLAELRVDHDNLVARVDTAERNIGSLTTELSTLTLRVTSIQADFESRISTLERTAVTSAGAPLSIRNNRMTMGLNDGLTLSGNNLAIRLPGNTGLNIQNGGLQFRFNTDQFQIVNNNLTLKTTVFDSINSRIGAIEQSYVASAVTPLRLNSSTKVLDMLIDSSTLEINSSGQLTVRSTSPNLRYPIADVSGGIGMSPNYRFRQSMWIGIVSYSGSGLNWRVQVNSDIFIVDDYIHICLPAFDGFSIADGGDLSLNFVTGLLPPLLTGDTEPAFHNDVVTYGAQTVAIGLSSGGAPQYMSKNLWVEQWQDGVLRLRVEGGGSITHSNSKWPAMTVSYPRSFT
chain 2: SVTVHSSEPEVRIPENNPVKLSCAYSGFSSPRVEWKFDQGDTTRLVCYNNKITASYEDRVTFLPTGITFKSVTREDTGTYTCMVSEEGGNSYGEVKVKLIVLVPPSKPTVNIPSSATIGNRAVLTCSEQDGSPPSEYTWFKDGIVMPTNPKSTRAFSNSSYVLNPTTGELVFDPLSASDTGEYSCEARNGYGTPMTSNAVRMEAVERNVGV

The variants in this experiment derive from B1. Briefly: SPR. To be noted: with GST-JAM-A ectodomain fusion protein, GST-JAM-A captured on biosensor surface, read off a plot.
Setting [1] is: 6×1012 (green) particles/ml virus, parent: 62.
Setting [2] is: 8×1012 (orange) particles/ml virus, parent: 98.
Setting [3] is: 1013 (red) particles/ml virus, parent: 205.

In the case of chain 1 G381A, the response under setting [1] worked out at 17 RU, the response under setting [2] turned out to be 28 RU and the response under setting [3] is 36 RU.
On to chain 1 E384A, for which the response reads like this: under setting [1], 140 RU; under setting [2], 280 RU; under setting [3], 460 RU.
